Data published in US20190048049A1 (CERENIS THERAPEUTICS, published 2019).
Ends that are not written are not given here.

Target: T1, ApoA-I (human, UniProt P02647 25-267)
T1 construct: Stands in Cargomers as a monomer or multimer (1-8 molecules); also called apolipoprotein A-I; ApoA1
Experiment: size exclusion chromatography of ApoA-I:M30 Cargomers, with increased temperature

T1 sequence (P02647 25-267 limits assumed): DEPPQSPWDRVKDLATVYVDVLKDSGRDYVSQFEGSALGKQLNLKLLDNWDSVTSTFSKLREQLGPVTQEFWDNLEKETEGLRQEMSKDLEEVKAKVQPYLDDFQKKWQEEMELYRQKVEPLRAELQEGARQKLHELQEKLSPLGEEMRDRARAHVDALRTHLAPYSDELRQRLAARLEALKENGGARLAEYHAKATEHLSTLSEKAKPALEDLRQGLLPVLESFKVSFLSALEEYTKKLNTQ

B1: M30 tumor antigen peptide coupled to PDP-PE lipid (peptide)
peptide: CSSVDWENVSPELNSTDQ
modifications: also: reacted with PDP-PE lipid, residue of attachment not given here
notes: Lipid-anchored peptide cargo of ApoA-I Cargomers (ApoA-I:TA molar ratios 1:2 and 1:4); also called TA peptide M30
Q: Does B1 bind?
A: Result: binds
